{
  "source": "the nanobody polyreactivity screen of Harvey et al. (2022)",
  "data": [
    {"assay": "yeast display, Sf9 membrane polyspecificity reagent, FACS + sequencing; frameworks hold sequencing errors", "method_in_brief": "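In a synthetic yeast display library (Saccharomyces cerevisiae BJ5465), nanobody expression was induced with galactose for 36–48 hours. FACS gates were set low and high (top ~1%) using anti-HA fluorescence for expression and streptavidin fluorescence for binding of the Sf9 membrane reagent. Each polyreactivity label is drawn from the gate of origin.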", "values": [
      {"sequence": "QVQLVESGGGLVQAGGSLRLSCAASGRIFYRNAMGWYRQAPGKERELVAAIRGGDNTYYADSVKGRFTISRDNAKNTVYLQMNSLKPEDTAVYYCAARSYRLDSYYWGQGTQVTVSS", "polyreactivity (PSR sort gate)": "high polyreactivity"},
      {"sequence": "QVQLVESGGGLVQAGGSLRLSCAASGRIFYRNAMGWYRQAPGKERELVAAISRRGGSTSYADSVKGRFTISRDNANNTVYLQMNSLKPEDTAVYYCAASRFRTGQEDDYWGQGTQVTVSS", "polyreactivity (PSR sort gate)": "high polyreactivity"},
      {"sequence": "QVQLVESGGGLVQAGGSLRLSCAASGRIFYRYAMGGYRQAPGKERELVASITTSGDSTYYADSVKGRFTISRDNAKNTVYLQMNSLKPEDTGVYYCAASSYRGRRYDYWGQGTQVTVSS", "polyreactivity (PSR sort gate)": "high polyreactivity"},
      {"sequence": "QVQLVESGGGLVQAGGSLRLSCAASGRIFYRYAMGWYRPAPGKERELVATITGRGGSTYYADSVKGRFTISRDNAKNTVYLQMNSLKPEDTAVYYCATTRSVSYPYDGSYYWGQGTQVTVSS", "polyreactivity (PSR sort gate)": "high polyreactivity"},
      {"sequence": "QVQLVESGGGLVQAGGSLRLSCAASGRIFYRYAMGWYRQAPGKEREFVAAISGTGGSTYYADSVKGRFTISRDNAKNTVYLQMNSLKPEDTAVDYCAASVVSRPTYYAYYYWGQGTQVTVSS", "polyreactivity (PSR sort gate)": "high polyreactivity"},
      {"sequence": "QVQLVESGGGLVQAGGSLRLSCAASGRIFYRYAMGWYRQAPGKERELVAAINDGGSTYYADSVKGRFTISRDNAKNTVYLQMNSLKAEDTAVYYCNVVNEHQSDFVVPFDYNHWGQGTQVTVSS", "polyreactivity (PSR sort gate)": "low polyreactivity"},
      {"sequence": "QVQLVESGGGLVQAGGSLRLSCAASGRIFYRYAMGWYRQAPGKERELVAAIRYSGGRTYYADSVKGRFTISRDNAKNTVYLQMNSLKPEDTAVYYCAADGQWYYAPFRGGDYENDYWGQGTQVTVSS", "polyreactivity (PSR sort gate)": "low polyreactivity"},
      {"sequence": "QVQLVESGGGLVQAGGSLRLSCAASGRIFYRYAMGWYRQAPGKERELVAAITGSVGSTYYADSVKGRFTISRDNAKNTVYLQMNSLKPEDTAVYYCAREYHGDSRRYDYWGQGTQVTVSS", "polyreactivity (PSR sort gate)": "high polyreactivity"},
      {"sequence": "QVQLVESGGGLVQAGGSLRLSCAASGRIFYRYAMGWYRQAPGKERELVAAITYSGSSTYYADSVKGRFTISRDNAKNTVYLQMNSLKPEDTAVYYCAARFQSTNGHKYYYWGQGTQVTVSS", "polyreactivity (PSR sort gate)": "high polyreactivity"},
      {"sequence": "QVQLVESGGGLVQAGGSLRLSCAASGRIFYRYVMGWYREAPGKERELVAAIRNSGGSTYYADSVKGRFTISRDNAKNTVYLQMNSLKPEDTAVYYCAKRYGTSFYVGSAKIGYDYWGQGTQVTVSS", "polyreactivity (PSR sort gate)": "high polyreactivity"},
      {"sequence": "QVQLVESGGGLVQAGGSLRLSCAASGRIFYSNTMGWYRQAPGKERELVAAISRSGGRTYYADSVKGRFTISRDNAKHTVYLQMNSLKPEDTAVYYCNTAYYRNPYYKGYYWGQGTQVTVSS", "polyreactivity (PSR sort gate)": "high polyreactivity"},
      {"sequence": "QVQLVESGGGLVQAGGSLRLSCAASGRIFYSYAMGGYRQAPGQERELVAAIDESDGSTYYADSVKGRFTISRDNATNTVYLQLNSLKPDDTAVYYSAADSLLVLFDYWGQGTQVTVSS", "polyreactivity (PSR sort gate)": "low polyreactivity"},
      {"sequence": "QVQLVESGGGLVQAGGSLRLSCAASGRIFYSYAMGWSRQAPGKERELVAAISFSVGSTYYADSVKGRFTISRDNAKNSVYLQMNSLKPEDTAVYYCAASLGFPGYEYWGQGTQVTVSS", "polyreactivity (PSR sort gate)": "low polyreactivity"},
      {"sequence": "QVQLVESGGGLVQAGGSLRLSCAASGRIFYSYAMGWYRQAPGKERELVAAITRGGSTSYADSVKGRFTISRDNAKNTVYLQMNSLKPEDTAVYYCATRQFYSYWKYYYWGQGTQVTVSS", "polyreactivity (PSR sort gate)": "high polyreactivity"},
      {"sequence": "QVQLVESGGGLVQAGGSLRLSCAASGRIFYSYAMGWYRQAPGKERELVATISRRGGSTYYADSVKGRFTISRDNAKITVYLQMNSLKPEDTAVYYCNKGIPTRSVRSYDYWGQGTQVTVSS", "polyreactivity (PSR sort gate)": "high polyreactivity"},
      {"sequence": "QVQLVESGGGLVQAGGSLRLSCAASGRIFYSYAMGWYRQAPGKESELVAAIRSTGSTNYADSVKGRFTISRDNAKNTVYLQMNSLKPEDTAVYYCAARTSYRSSLFGYWGQGTQVTVSS", "polyreactivity (PSR sort gate)": "high polyreactivity"},
      {"sequence": "QVQLVESGGGLVQAGGSLRLSCAASGRIFYSYTMGWYRQAPGKERELVAGINRSVGSTYYADSVKGRFTISRDNAKNTVYLQMNSLKPEDTAVYYCAAGSRRRSYYTFSSVHGHYYWGQGTQVTVSS", "polyreactivity (PSR sort gate)": "high polyreactivity"},
      {"sequence": "QVQLVESGGGLVQAGGSLRLSCAASGRIFYSYVMGWYRQAPGKDRELVGAITRSGGTTYYADSVMGRFTISRDNANNPVYLQMNSLKPEDTAVYYCATRSIFNGYGYYHPYNFWGQGTQVTVSS", "polyreactivity (PSR sort gate)": "high polyreactivity"},
      {"sequence": "QVQLVESGGGLVQAGGSLRLSCAASGRIFYTNAMGWSRQAPGKERELVAVISWGGDTTYYADSVKGRFTISRDNAKNTVYLQMNSLKPEDTAVYYCNADWGPTYEIYDSWGQGTQVTVSS", "polyreactivity (PSR sort gate)": "low polyreactivity"},
      {"sequence": "QVQLVESGGGLVQAGGSLRLSCAASGRIFYTNAMGWYRQAPGKERELVAAIDYSDSTTYYADSVKGRFTISRDNAKNTVYLQMNSLKPEDTAVYYCAAESYLYTVTFEYWGQGTQVTVSS", "polyreactivity (PSR sort gate)": "high polyreactivity"},
      {"sequence": "QVQLVESGGGLVQAGGSLRLSCAASGRIFYTNAMGWYRQAPGKERELVAVISWGGDTTYYADSVKGRFTISRDNAKNTVYLQMNSLKPEDTAVYYCKADWGPTYEIYDSWGQGTQVTVSS", "polyreactivity (PSR sort gate)": "low polyreactivity"},
      {"sequence": "QVQLVESGGGLVQAGGSLRLSCAASGRIFYTYAMGWYRPAPGKERELVAAITYRGGSTYYADSVKGRFTISRDNAKNTVYLQMNSLKPEDTAVYYCAGRPGRGPDSRWRYKYDYWGQGTQVTVSS", "polyreactivity (PSR sort gate)": "high polyreactivity"},
      {"sequence": "QVQLVESGGGLVQAGGSLRLSCAASGRIFYTYAMGWYRQAPGKERELVAAIRWRGGSTHYADSVKGRFTISRDNAKNTVYLQMNSLKPEDTAVYYCARDGGWYIDGRAYTGDYWGQGTQVTVSS", "polyreactivity (PSR sort gate)": "high polyreactivity"},
      {"sequence": "QVQLVESGGGLVQAGGSLRLSCAASGRIFYTYAMGWYRQAPGKERELVATISGRGGSTYYADSVKGRFTISRDNAKNTVYLLMNSLKPEDTAVYYCAAVSYTQSHAYWGTGYRYGYWGQGTQVTVSS", "polyreactivity (PSR sort gate)": "high polyreactivity"},
      {"sequence": "QVQLVESGGGLVQAGGSLRLSCAASGRIFYVNAMGWYRQAPGKERELVATINYTDGSTYYADSVKGRFTISRDKAKNTVYLQMNSMKPEDTAVYYCAADAVWYDFVAYWTTYYYWGPGTQVTVSS", "polyreactivity (PSR sort gate)": "low polyreactivity"},
      {"sequence": "QVQLVESGGGLVQAGGSLRLSCAASGRIFYVYAMGWYRQAPGKEREFVAAITRRSGSTYYADSVKGRFTISRDKAKNTVYLQMNSLKPEDTAVYYCNARLKYAFPQVPPYDYWGQGTQVTVSS", "polyreactivity (PSR sort gate)": "high polyreactivity"},
      {"sequence": "QVQLVESGGGLVQAGGSLRLSCAASGRIFYVYGMGWYRQAPGKERELVGAISKRGDNTYYADSVKGRFTISRDNAKNTVYLQMNSLNPEDTAVYYCNVKRYGGRSDYWGQGTQVTVSS", "polyreactivity (PSR sort gate)": "high polyreactivity"},
      {"sequence": "QVQLVESGGGLVQAGGSLRLSCAASGRIFYWNAMGWYRQAPGKERELVAVITKSGGSTYYADSVKGRFTISRDNAKNTVYLQMNSLKPEDTAVYYCAKSLYVQGYYIYDWGQGTQVTVSS", "polyreactivity (PSR sort gate)": "high polyreactivity"},
      {"sequence": "QVQLVESGGGLVQAGGSLRLSCAASGRIFYWYAMGWYRQAPGKERELVAAISGSDGSTYYADSVKGRFTISRDNAKNTVYLQMNSLKPEDTAVYYCADEGSYPRMDYWGQGTQVTVSS", "polyreactivity (PSR sort gate)": "low polyreactivity"},
      {"sequence": "QVQLVESGGGLVQAGGSLRLSCAASGRIFYYNAMGWSRQAPGKEWELVAAITYSGTSTYYAASVKGRFTISRDNAKYTVYLQMNSLKPEDTAVDYCNAEGDNRRDRYDYWGQGTQVTVSS", "polyreactivity (PSR sort gate)": "low polyreactivity"},
      {"sequence": "QVQLVESGGGLVQAGGSLRLSCAASGRIFYYNAMGWYRQAPGKEREFVAAITYRGGSTYYADSVKGRFTISRDNAKNTVYLQMNSLKPEDTAVYYCAARSAWQVAPRGRTVAFDYWGQGTQLTVSS", "polyreactivity (PSR sort gate)": "high polyreactivity"},
      {"sequence": "QVQLVESGGGLVQAGGSLRLSCAASGRIFYYNAMGWYRQAPGKERELVAAITRSGSTNYADSVKGRFTISRDNSKNSVYLQMNSLKPEDTAVYYCAAPWRGSVFRYYSWGQGTQVTVSS", "polyreactivity (PSR sort gate)": "low polyreactivity"},
      {"sequence": "QVQLVESGGGLVQAGGSLRLSCAASGRIFYYNAMGWYRQAPGKERELVAAITYIGGNTHYADSVKGRFTISRDNAKNTVYFQMNSLKPEDTAVYYCARGTVLGFYYEYGYWGQGTQVTVSS", "polyreactivity (PSR sort gate)": "low polyreactivity"},
      {"sequence": "QVQLVESGGGLVQAGGSLRLSCAASGRIFYYNTMGWYRQAPGKERELVAAISYRGGSTYYADSVKGRFTISRDNAKNTVYLQMNSLKTEDTAVYYCAAPVRQSSYTRYDSWGQGTQVTVSS", "polyreactivity (PSR sort gate)": "high polyreactivity"},
      {"sequence": "QVQLVESGGGLVQAGGSLRLSCAASGRIFYYNTMGWYRQAPGKERELVAAITTNGGSTYYADSVKGRFTISRDNAKNTVYLQMNSPKPEDTAVYYCNRDRYPYYYAYNYWGQGTQVTVSS", "polyreactivity (PSR sort gate)": "low polyreactivity"},
      {"sequence": "QVQLVESGGGLVQAGGSLRLSCAASGRIFYYYAMGRYRQAPGKERELVAAISWSGGSTYYADSVKGRFTISRDNAKNTVYLQMNSLKPEDTAVYYCAAESRKYREYYYWGQGTQVTVSS", "polyreactivity (PSR sort gate)": "high polyreactivity"},
      {"sequence": "QVQLVESGGGLVQAGGSLRLSCAASGRIFYYYAMGWYRQAPGKERELVAAISSRGASTYYADSVKGRFTISRDNAKNTVYLQMNSLKPEDTAVYYCAASTPFRSTRYDYWGQGTQVTVSS", "polyreactivity (PSR sort gate)": "high polyreactivity"},
      {"sequence": "QVQLVESGGGLVQAGGSLRLSCAASGRIFYYYAMGWYRQAPGKERELVAAISSSGGSTYYADSVKGRYTISRDNAKNTVYLQMNSLKPEDTAVYYCNARTRYDMGYWGQGTQVTVSS", "polyreactivity (PSR sort gate)": "high polyreactivity"},
      {"sequence": "QVQLVESGGGLVQAGGSLRLSCAASGRIFYYYAMGWYRQAPGKERELVAAISWRGTSTYYADSVKGRFTISRDNAKNTVYLQMNSLKPEDTAVYYCAARYTKGMYYWGQGTQVSVSS", "polyreactivity (PSR sort gate)": "high polyreactivity"},
      {"sequence": "QVQLVESGGGLVQAGGSLRLSCAASGRIFYYYAMGWYRQAPGKERELVAAISWRGVSTYYADSVKGRFTISRDNAKNTVYLQMNSLKPEDTAVYYCAASQYRSPYPYRDYYTPDYDYWGQGTQVTVSS", "polyreactivity (PSR sort gate)": "high polyreactivity"}
    ]}
  ]
}
